Patent US20240010714A1 (MBRACE THERAPEUTICS, published 2024)

Legend:
Experiment in all cases: alanine scan, high-throughput flow cytometry
[1] = target: T1, GRP78 alanine scan variant H265A (human, UniProt P11021 19-654)
T1 construct: Member of the GRP78 alanine scan library
Experimental: (§1) To characterize the binding properties of the antibodies described in Example 1 for GRP78, epitope mapping analysis was carried out by alanine scan mutagenesis. An alanine scan library of GRP78 was constructed. Each anti-GRP78 antibody was then screened for binding to each individual GRP78 variant, allowing identification of the target protein residues involved in antibody binding.
(§2) Binding of each test antibody to each GRP78 variant in the alanine scanning library was determined by high-throughput flow cytometry under high stringency conditions (e.g., increased pH, increased salinity, increased temperature and/or increased wash time). Also included in the experiment was a commercially-available monoclonal antibody, 1H11-1H7, which was verified to bind to WT GFR78 on cells and thus determined to be a suitable positive control under these conditions (Thermo Fisher Scientific, Waltham, MA). Antibody binding to each of the GRP78 variant as measured by the fluorescence signal (raw fluorescence data minus the background), was normalized to its binding to the wildtype (WT) GRP78. For each GRP78 variant, such normalized binding to the test antibodies was plotted relative to that to the control antibody.

[2] = target: T2, GRP78 alanine scan variant E329A (human, UniProt P11021 19-654)
T2 construct: Member of the GRP78 alanine scan library
T2 sequence (P11021 19-654 E329A limits assumed): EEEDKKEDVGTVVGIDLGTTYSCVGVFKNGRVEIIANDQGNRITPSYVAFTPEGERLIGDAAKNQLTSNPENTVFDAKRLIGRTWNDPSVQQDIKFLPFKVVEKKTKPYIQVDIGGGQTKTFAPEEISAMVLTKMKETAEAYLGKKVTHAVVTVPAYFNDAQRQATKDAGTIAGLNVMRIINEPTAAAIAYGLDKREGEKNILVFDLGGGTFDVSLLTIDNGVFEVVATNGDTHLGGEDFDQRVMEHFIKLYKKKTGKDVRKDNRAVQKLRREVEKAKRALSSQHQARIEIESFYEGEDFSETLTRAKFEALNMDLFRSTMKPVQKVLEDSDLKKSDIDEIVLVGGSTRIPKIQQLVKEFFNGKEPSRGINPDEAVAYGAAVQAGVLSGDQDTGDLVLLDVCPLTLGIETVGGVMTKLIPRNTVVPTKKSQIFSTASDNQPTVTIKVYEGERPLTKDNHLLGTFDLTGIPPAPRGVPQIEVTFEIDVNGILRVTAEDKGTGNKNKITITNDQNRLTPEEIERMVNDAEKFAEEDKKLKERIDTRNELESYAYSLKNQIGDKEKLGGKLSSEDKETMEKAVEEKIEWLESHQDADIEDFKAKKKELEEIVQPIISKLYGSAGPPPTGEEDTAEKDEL
Experimental: as §1, §2

[3] = target: T3, GRP78 alanine scan variant R261A (human, UniProt P11021 19-654)
T3 construct: Member of the GRP78 alanine scan library
T3 sequence (P11021 19-654 R261A limits assumed): as the sequence (P11021 19-654 E329A limits assumed) above, with R243A, A311E counted along it
Experimental: as §1, §2

[4] = target: T4, GRP78 alanine scan variant R279A (human, UniProt P11021 19-654)
T4 construct: Member of the GRP78 alanine scan library
T4 sequence (P11021 19-654 R279A limits assumed): as the sequence (P11021 19-654 E329A limits assumed) above, with R261A, A311E counted along it
Experimental: as §1, §2

T1 sequence (P11021 19-654 H265A limits assumed): as the sequence (P11021 19-654 E329A limits assumed) above, with H247A, A311E counted along it

Row | Binder | binding normalized to wildtype (WT) GRP78 [1] | binding normalized to wildtype (WT) GRP78 [2] | binding normalized to wildtype (WT) GRP78 [3] | binding normalized to wildtype (WT) GRP78 [4]
1 | anti-GRP78 antibody clone B4 (antibody, IgG1, V domains shown, Fully human mAb formatted as full-length IgG1; also called B4 mAb) VH: QVRLQESGPGLVKPSQTLSLTCTVSGGSISSGGYYWSWIRQHPGKGLEWIGYIYYSGSTYYNPSLESRVTISVDTSKNQFSLKLSSVTAADTAVYYCARYSSIDAFEIWGQGTMVTVSS VL: SYVLTQPPSVSVAPGKTATITCGGDDIGSKSVHWYQQKPGQAPVLVVYDDGDRPSGIPERFSGSNSGNTATLAISRVEAGDEADYYCQVWDSSSDQYVFGSGTKLTVL | < 20% | < 20% | < 20% | 
2 | anti-GRP78 antibody clone F6 (antibody, IgG1, V domains shown, Fully human mAb formatted as full-length IgG1; also called F6 mAb; Anti-GRP78 (F6)) VH: QVQLQQSGPGLVKPPQTLSLTCAISGDSVSSNSAAWNWIRQSPSRGLEWLGRTYYRSKWYNDYAVSVKSRITINPDTSKNQFSLQLNSVTPEDTAVYYCARDPYYYDSSGYYYFDAFDIWGQGTMVTVSS VL: SYELTQPHSVSVAPGQTARITCGGDNIGSKSVHWYQQRPGQAPVLVVYDDSDRPSGIPERFSGSNSENTATLTISGVEAGDEADYYCQVWDSTSHHVVFGGGTKLTVL |  |  | < 20% | < 20%
